For experiment [1], the target named is T1, ephrin B1 (mouse (endogenous in primary osteoclasts)).
T1 sequence (P52795 whole entry, looked up): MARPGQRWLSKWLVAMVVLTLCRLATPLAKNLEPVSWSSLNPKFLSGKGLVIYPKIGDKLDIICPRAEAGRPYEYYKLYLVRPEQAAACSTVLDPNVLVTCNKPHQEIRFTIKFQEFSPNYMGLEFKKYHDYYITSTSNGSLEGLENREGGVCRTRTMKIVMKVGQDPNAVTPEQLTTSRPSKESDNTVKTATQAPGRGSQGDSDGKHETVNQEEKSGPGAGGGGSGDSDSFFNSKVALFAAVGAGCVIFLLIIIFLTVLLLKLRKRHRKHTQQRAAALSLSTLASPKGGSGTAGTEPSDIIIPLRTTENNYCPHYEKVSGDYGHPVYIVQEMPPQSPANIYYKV

Experiment [2] has the same target. The source holds these as a separate data set.

B1: clustered soluble recombinant EphB2-Fc (Fc fusion)
chain: VEETLMDSTTATAELGWMVHPPSGWEEVSGYDENMNTIRTYQVCNVFESSQNNWLRTKFIRRRGAHRIHVEMKFSVRDCSSIPSVPGSCKETFNLYYYEADFDLATKTFPNWMENPWVKVDTIAADESFSQVDLGGRVMKINTEVRSFGPVSRNGFYLAFQDYGGCMSLIAVRVFYRKCPRIIQNGAIFQETLSGAESTSLVAARGSCIANAEEVDVPIKLYCNGDGEWLVPIGRCMCKAGFEAVENGTVCRGCPSGTFKANQGDEACTHCPINSRTTSEGATNCVCRNGYYRADLDPLDMPCTTIPSAPQAVISSVNETSLMLEWTPPRDSGGREDLVYNIICKSCGSGRGACTRCGDNVQYAPRQLGLTEPRIYISDLLAHTQYTFEIQAVNGVTDQSPFSPQFASVNITTNQAAPSAVSIMHQVSRTVDSITLSWSQPDQPNGVILDYELQYYEKELSEYNATAIKSPTNTVTVQGLKAGAIYVFQVRARTVAGYGRYSGKMYFQTMTEAEYQTSIKEKLPL
Turning to B1, in experiment [1], the inhibition of the area of bone resorption pits formed by WT osteoclast precursors on bone slices by EphB2-Fc against control Fc; no significant effect on ephrin B1 deficient cells was 54% and the suppression of multinucleated cell (MNC) formation from WT splenocyte precursors by EphB2-Fc (2 µg/ml) against control Fc; little effect on ephrin B1 deficient cells was 49.8%. In experiment [2], this molecule returned an inhibition of NFATc1 mRNA (real-time RT-PCR) in WT osteoclasts treated with EphB2-Fc against control Fc; not in ephrin B1 deficient cells of 67%, an inhibition of cathepsin K mRNA (real-time RT-PCR) in WT osteoclasts treated with EphB2-Fc against control Fc; not in ephrin B1 deficient cells of 60% and a reduction of TRAP mRNA (real-time RT-PCR) in differentiated WT osteoclasts treated with soluble EphB2-Fc for 4 days against control Fc of 62%.
